Source: the supplement of paper PMC7125110
± gives the standard error. Variants at the floor of the assay were thinned out.

B1: glmS ribozyme (parent)
chain: AUAAAAGCGCCAGAACUACAGAAAUGUAGUUGACGAGGAGGAGGUUUAUCGAAUUUUCGGCGGAUGCCUCCAAA

Columns and labels:
Details in all cases: with glucosamine-6-phosphate
glucosamine-6-phosphate [1] = variants of: B1; assay: self-cleavage kobs at 40 uM GlcN6P; higher = faster cleavage; RNA array
Outline: (§1)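 Glucosamine-6-phosphate, from 40 μM to 10 mM in HEPES/KCl/Mg(OAc)2 buffer, was flowed over sequenced MiSeq chips carrying barcoded ribozyme variants transcribed in situ by E. coli RNA polymerase. A hybridised Cy3 probe tracked the variants at 37 °C as tiles were imaged over ~14 h. kobs, kcat and KM were obtained by fitting normalised per-tile medians to exponential decays and then applying weighted Michaelis–Menten fits across concentrations.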

glucosamine-6-phosphate [2] = variants of: B1; assay: self-cleavage kobs at 160 uM GlcN6P; higher = faster cleavage; RNA array
Outline: as §1

glucosamine-6-phosphate [3] = variants of: B1; assay: self-cleavage kobs at 640 uM GlcN6P; higher = faster cleavage; RNA array
Outline: as §1

glucosamine-6-phosphate [4] = variants of: B1; assay: self-cleavage kobs at 2500 uM GlcN6P; higher = faster cleavage; RNA array
Outline: as §1

glucosamine-6-phosphate [5] = variants of: B1; assay: self-cleavage kobs at 10000 uM GlcN6P; higher = faster cleavage; RNA array
Outline: as §1

| Variant | self-cleavage kobs at 40 uM GlcN6P (glucosamine-6-phosphate [1]) | self-cleavage kobs at 160 uM GlcN6P (glucosamine-6-phosphate [2]) | self-cleavage kobs at 640 uM GlcN6P (glucosamine-6-phosphate [3]) | self-cleavage kobs at 2500 uM GlcN6P (glucosamine-6-phosphate [4]) | self-cleavage kobs at 10000 uM GlcN6P (glucosamine-6-phosphate [5]) |
| --- | --- | --- | --- | --- | --- |
| G43A A64U | < 1e-05 s⁻¹ | < 1e-05 s⁻¹ | < 1e-05 s⁻¹ | < 1e-05 s⁻¹ | < 1e-05 s⁻¹ |
| G43A U47G | < 1e-05 s⁻¹ |  | < 1e-05 s⁻¹ |  |  |
| G43C A64U | < 1e-05 s⁻¹ | < 1e-05 s⁻¹ |  | < 1e-05 s⁻¹ | < 1e-05 s⁻¹ |
| G43C A64G | < 1e-05 s⁻¹ | < 1e-05 s⁻¹ | < 1e-05 s⁻¹ | < 1e-05 s⁻¹ | < 1e-05 s⁻¹ |
| G40U A42G G51C A52G C70G | < 1e-05 s⁻¹ |  |  | < 1e-05 s⁻¹ | < 1e-05 s⁻¹ |
| G41C A48C | < 1e-05 s⁻¹ |  | < 1e-05 s⁻¹ | < 1e-05 s⁻¹ | < 1e-05 s⁻¹ |
| G43C G51U | < 1e-05 s⁻¹ |  |  |  | < 1e-05 s⁻¹ |
| A39C G41U | < 1e-05 s⁻¹ | < 1e-05 s⁻¹ |  |  |  |
| G41A G63U | < 1e-05 s⁻¹ | < 1e-05 s⁻¹ | < 1e-05 s⁻¹ | < 1e-05 s⁻¹ | < 1e-05 s⁻¹ |
| G41A U46C | < 1e-05 s⁻¹ |  |  |  | 4.37e-05 ± 1.2e-05 s⁻¹ |
| G41A U56A | 4.59e-05 ± 9.3e-06 s⁻¹ | 8.06e-05 ± 1.3e-05 s⁻¹ | 0.000252 ± 2.8e-05 s⁻¹ | 0.00173 ± 0.00036 s⁻¹ | 0.00063 ± 8.8e-05 s⁻¹ |
| A42G G60A C70G | < 1e-05 s⁻¹ |  |  |  |  |
| G44A U46C A53U C61U | < 1e-05 s⁻¹ |  |  |  |  |
| G41A C58A | < 1e-05 s⁻¹ |  | < 1e-05 s⁻¹ |  |  |
| A39G G51C G62C | < 1e-05 s⁻¹ |  |  |  | < 1e-05 s⁻¹ |
| G43C U47G | < 1e-05 s⁻¹ |  | < 1e-05 s⁻¹ |  | < 1e-05 s⁻¹ |
| G38U U56G | < 1e-05 s⁻¹ |  |  | < 1e-05 s⁻¹ | < 1e-05 s⁻¹ |
| G41U C50G | < 1e-05 s⁻¹ |  | < 1e-05 s⁻¹ |  | < 1e-05 s⁻¹ |
| G40A G63C | < 1e-05 s⁻¹ |  | < 1e-05 s⁻¹ |  |  |
| G41C G59U | < 1e-05 s⁻¹ |  | < 1e-05 s⁻¹ | < 1e-05 s⁻¹ | < 1e-05 s⁻¹ |
| G44A G59C C71U | < 1e-05 s⁻¹ |  |  |  | < 1e-05 s⁻¹ |
| G43A C58G | < 1e-05 s⁻¹ | < 1e-05 s⁻¹ | < 1e-05 s⁻¹ | < 1e-05 s⁻¹ | < 1e-05 s⁻¹ |

| Variant | self-cleavage kobs at 40 uM GlcN6P (glucosamine-6-phosphate [1]) | self-cleavage kobs at 160 uM GlcN6P (glucosamine-6-phosphate [2]) | self-cleavage kobs at 640 uM GlcN6P (glucosamine-6-phosphate [3]) | self-cleavage kobs at 2500 uM GlcN6P (glucosamine-6-phosphate [4]) | self-cleavage kobs at 10000 uM GlcN6P (glucosamine-6-phosphate [5]) |
| --- | --- | --- | --- | --- | --- |
| G38U U45C | < 1e-05 s⁻¹ | < 1e-05 s⁻¹ | < 1e-05 s⁻¹ | < 1e-05 s⁻¹ | < 1e-05 s⁻¹ |
| G44A G59A | < 1e-05 s⁻¹ | < 1e-05 s⁻¹ | < 1e-05 s⁻¹ |  | < 1e-05 s⁻¹ |
| G44A A52U | < 1e-05 s⁻¹ | < 1e-05 s⁻¹ | < 1e-05 s⁻¹ |  |  |
| G44A A52C | < 1e-05 s⁻¹ | < 1e-05 s⁻¹ | < 1e-05 s⁻¹ | < 1e-05 s⁻¹ | < 1e-05 s⁻¹ |
| A39C C50A G60A C61U U65A | < 1e-05 s⁻¹ |  |  |  | < 1e-05 s⁻¹ |
| A42U U69G | 0.000489 ± 5.4e-05 s⁻¹ | 0.000822 ± 0.00011 s⁻¹ | 0.00192 ± 0.00026 s⁻¹ | 0.00369 ± 0.00061 s⁻¹ | 0.00738 ± 0.0015 s⁻¹ |
| A42G G43C U45G A64U | < 1e-05 s⁻¹ |  |  |  | < 1e-05 s⁻¹ |
| G41U G44U A64U | < 1e-05 s⁻¹ |  |  |  | < 1e-05 s⁻¹ |
| G43C U46A | < 1e-05 s⁻¹ |  |  | < 1e-05 s⁻¹ | < 1e-05 s⁻¹ |
| G41A G62U | < 1e-05 s⁻¹ | < 1e-05 s⁻¹ | < 1e-05 s⁻¹ |  | < 1e-05 s⁻¹ |
| A39G A42U U57A | < 1e-05 s⁻¹ | < 1e-05 s⁻¹ |  |  |  |
| G41A U49C C67U | < 1e-05 s⁻¹ |  |  |  |  |
| G43C C50A U65C C68U | < 1e-05 s⁻¹ |  |  |  | < 1e-05 s⁻¹ |
| G41A C61U C68A C70G C71A | < 1e-05 s⁻¹ |  |  |  |  |
| G43A A48U | < 1e-05 s⁻¹ | < 1e-05 s⁻¹ | < 1e-05 s⁻¹ | < 1e-05 s⁻¹ | < 1e-05 s⁻¹ |
| G40U G41U U46A U47C G51U | < 1e-05 s⁻¹ |  |  |  |  |
| G44A U56C | < 1e-05 s⁻¹ | < 1e-05 s⁻¹ |  |  | < 1e-05 s⁻¹ |
| G40A C68A | < 1e-05 s⁻¹ | < 1e-05 s⁻¹ | < 1e-05 s⁻¹ | < 1e-05 s⁻¹ | < 1e-05 s⁻¹ |
| A39G G43U G44U U55G | < 1e-05 s⁻¹ |  | < 1e-05 s⁻¹ | < 1e-05 s⁻¹ | < 1e-05 s⁻¹ |
| G41A G59C C68A | < 1e-05 s⁻¹ |  |  | < 1e-05 s⁻¹ | < 1e-05 s⁻¹ |
| G41U G62C C70U | < 1e-05 s⁻¹ |  | < 1e-05 s⁻¹ |  | < 1e-05 s⁻¹ |
